Assay results: patent publication US20260144882A1 (BIO THERA SOLUTIONS, published 2026)
Positions count from the first letter of the chain named. Read-outs that look alike come from different tables or passages of the source.

How the values were obtained:
[1] = biological target: T1, human Nectin-4, full length on cells (human, UniProt Q96NY8 32-510); experiment: flow cytometry, T-47D cells, antibody bound on ice, 0 h at 37 C
T1 construct: whole, on cells; T-47D cells positive for Nectin-4 expression; also called Nectin-4 on T-47D cells; CHO-Nectin-4
T1 sequence (looked up): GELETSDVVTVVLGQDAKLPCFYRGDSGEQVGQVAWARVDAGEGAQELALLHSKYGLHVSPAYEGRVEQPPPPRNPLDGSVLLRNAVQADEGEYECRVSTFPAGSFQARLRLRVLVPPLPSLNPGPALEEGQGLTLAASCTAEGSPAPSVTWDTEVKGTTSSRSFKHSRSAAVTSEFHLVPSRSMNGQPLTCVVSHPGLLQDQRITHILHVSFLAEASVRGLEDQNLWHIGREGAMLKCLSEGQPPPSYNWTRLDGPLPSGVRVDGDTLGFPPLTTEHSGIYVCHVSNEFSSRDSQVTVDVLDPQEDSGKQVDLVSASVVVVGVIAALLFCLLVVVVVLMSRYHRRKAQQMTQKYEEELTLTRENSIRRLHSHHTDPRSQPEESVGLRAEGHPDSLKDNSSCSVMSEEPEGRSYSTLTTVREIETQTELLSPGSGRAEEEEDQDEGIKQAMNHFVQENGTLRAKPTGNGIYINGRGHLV
Experimental: (§1) In this assay, the relative amount of antibodies remaining on the cell surface after co-incubation at 37° C. for a certain period of time was detected by FACS to reflect the endocytosis efficiency. The procedures are briefly described as follows: T-47D cells (human ductal breast cancer cells, derived from the Cell Bank of Chinese Academy of Sciences, Cat.No. TCHu 87); the antibodies of interest were adjusted to 10 µg/mL and co-incubated with the cells on ice for 1 h; the cells were washed 3 times with pre-cooled PBS, and then placed at 37° C. and incubated for 0 h, 2 h and 4 h; 0.2% N₃Na was added to stop the endocytosis reaction; the cells were washed with PBS thrice, followed by the addition of the PE-labeled anti-human Fc secondary antibody (Invitrogen 12-4998-82); the cells were incubated at 4° C. for 30 min; the red fluorescence signal was detected on a flow cytometer.

[2] = biological target: T2, human Nectin-4 extracellular antigen hNectin-4-His (human, UniProt Q96NY8 32-349); experiment: ELISA, coated hNectin-4-His
T2 construct: C-terminal 8xHis tag included
T2 sequence: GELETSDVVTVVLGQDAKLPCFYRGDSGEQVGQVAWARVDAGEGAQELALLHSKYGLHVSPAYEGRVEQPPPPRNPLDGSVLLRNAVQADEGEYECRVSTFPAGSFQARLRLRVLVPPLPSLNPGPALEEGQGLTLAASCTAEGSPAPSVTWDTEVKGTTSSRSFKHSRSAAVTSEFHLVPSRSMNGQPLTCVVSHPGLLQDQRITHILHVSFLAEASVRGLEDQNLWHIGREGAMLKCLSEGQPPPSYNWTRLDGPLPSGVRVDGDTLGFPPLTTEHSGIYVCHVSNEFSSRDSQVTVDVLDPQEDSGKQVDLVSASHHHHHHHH
Text: (§2) The binding activity of the antibodies was detected by ELISA.

[3] = biological target: T2, human Nectin-4 extracellular antigen …; experiment: SPR, antibody on Protein A chip, hNectin-4-His analyte, 1:1 fit
Text: (§3) In this study, the affinity of the antibodies for the human Nectin-4 extracellular antigen was detected by surface plasmon resonance (SPR) technique (BIAcore: GE Healthcare, T200).

[4] = biological target: T2, human Nectin-4 extracellular antigen …; experiment: SPR, antibody on Protein A chip, 1:1 fit
Text: as §3

[5] = biological target: T1, human Nectin-4, full length on cells; experiment: flow cytometry, T-47D cells, antibody bound on ice, 0 h at 37 C; remark: listed apart in the source
Experimental: as §1

[6] = biological target: T2, human Nectin-4 extracellular antigen …; experiment: ELISA, coated hNectin-4-His; remark: listed apart in the source
Text: as §2

[7] = biological target: T2, human Nectin-4 extracellular antigen …; experiment: ELISA, coated hNectin-4-His; remark: listed apart in the source
Text: as §2

B1: antibody 1B4 (antibody, human IgG1, kappa, V domains shown)
VH: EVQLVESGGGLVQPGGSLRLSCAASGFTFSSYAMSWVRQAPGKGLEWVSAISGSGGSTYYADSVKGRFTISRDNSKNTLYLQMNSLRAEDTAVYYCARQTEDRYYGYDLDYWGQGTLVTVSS
VL: DIQMTQSPSSLSASVGDRVTITCRASQGISSYLAWYQQKPGKAPKLLIYAASSLQSGVPSRFSGSGSGTDFTLTISSLQPEDFATYYCQQHYTTPPTFGQGTKVEIKR
B1 was tested, and the “MFI (mean fluorescence intensity) 0 h” value [1] was 108000 MFI, the EC50 [2] was 0.025 µg/mL and the Kd [3] was 5330 pM. For the same binder, the koff [3] was 0.0032 s⁻¹ and the kon [3] was 600000 M⁻¹ s⁻¹.

B2: antibody 1G12 (antibody, human IgG1, kappa, V domains shown)
VH: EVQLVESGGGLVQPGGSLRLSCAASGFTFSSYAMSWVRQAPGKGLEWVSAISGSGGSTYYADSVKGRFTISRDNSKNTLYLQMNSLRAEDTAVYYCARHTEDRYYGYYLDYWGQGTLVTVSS
VL: B1 VL
B2 showed an EC50 [2] of 0.073 µg/mL, a Kd [3] of 8610 pM and a koff [3] of 0.00464 s⁻¹. It also gave a kon [3] of 539000 M⁻¹ s⁻¹.

B3: antibody 10A4 (antibody, human IgG1, kappa, V domains shown)
VH: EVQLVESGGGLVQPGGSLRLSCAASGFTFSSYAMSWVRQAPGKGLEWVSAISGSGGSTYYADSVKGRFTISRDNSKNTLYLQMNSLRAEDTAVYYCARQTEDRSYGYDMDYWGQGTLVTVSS
VL: B1 VL
For B3, the “MFI (mean fluorescence intensity) 0 h” value [1] was 107000 MFI, the EC50 [2] was 0.041 µg/mL and the Kd [3] was 6710 pM. For the same binder, the koff [3] was 0.00232 s⁻¹ and the kon [3] was 346000 M⁻¹ s⁻¹.

B4: antibody 10F4-1 (antibody, human IgG1, kappa, V domains shown)
VH: EVQLVESGGGLVQPGGSLRLSCAASGDSFTNYWMSWVRQAPGKGLEWVSGISQGGSYAYYADSVKGRFTISRDNSKNTLYLQMNSLRAEDTAVYYCAREYSDVVDYVSVRTPLDYWGQGTLVTVSS
VL: B1 VL
Binder B4 has a Kd [4] of 545 pM, a koff [4] of 0.000226 s⁻¹ and a kon [4] of 415000 M⁻¹ s⁻¹. The “MFI (mean fluorescence intensity) 0 h” value [5] was 58600 MFI.

B5: antibody 10F4-2C6 (antibody, human IgG1, kappa, V domains shown)
VH: EVQLVESGGGLVQPGGSLRLSCAASGFNFGGFDMSWVRQAPGKGLEWVSGIKQYKGYTSYADSVKGRFTISRDNSKNTLYLQMNSLRAEDTAVYYCAREYSDVVDYVSVRTPLDYWGQGTLVTVSS
VL: B1 VL
With B5 the EC50 [6] was 0.09 µg/mL, the Kd [4] was 285 pM and the koff [4] was 8.36e-05 s⁻¹. It also gave a kon [4] of 294000 M⁻¹ s⁻¹.

B6: antibody 10F4-2F11 (antibody, human IgG1, kappa, V domains shown)
VH: B4 VH with D27Y, S28N, N31S, W33D, S52K, Q53T, S56G, Y57S, Y59R
VL: B1 VL
In the case of B6, the EC50 [6] is reported as 0.078 µg/mL, the Kd [4] is reported as 396 pM and the koff [4] is reported as 0.000161 s⁻¹. The kon [4] was 406000 M⁻¹ s⁻¹.

B7: antibody 10F4-3 (antibody, human IgG1, kappa, V domains shown)
VH: B5 VH with N28S, G31D, D33A, G50V, K52D, Q53G, Y54H, K55T, G56A, T58N
VL: B1 VL
B7 was tested, and the Kd [4] was 352 pM, the koff [4] was 0.000122 s⁻¹ and the kon [4] was 346000 M⁻¹ s⁻¹. For the same binder, the “MFI (mean fluorescence intensity) 0 h” value [5] was 61200 MFI.

B8: antibody 10F4-5 (antibody, human IgG1, kappa, V domains shown)
VH: B5 VH with N28I, G30D, F32Y, G50V, Q53D, Y54H, K55G, T58K, S59F
VL: B1 VL
In the case of B8, the Kd [4] is reported as 399 pM, the koff [4] is reported as 0.000137 s⁻¹ and the kon [4] is reported as 343000 M⁻¹ s⁻¹. For the same binder, the “MFI (mean fluorescence intensity) 0 h” value [5] was 63400 MFI.

B9: antibody 1F3-1B1 (antibody, human IgG1, kappa, V domains shown)
VH: EVQLVESGGGLVQPGGSLRLSCAASGFTFGTYGMSWVRQAPGKGLEWVSGIKPGDSTTYYADSVKGRFTISRDNSKNTLYLQMNSLRAEDTAVYYCARAELLAFDVYTASDYWGQGTLVTVSS
VL: B1 VL
Binder B9 has an EC50 [7] of 0.016 µg/mL, a Kd [4] of 170 pM and a koff [4] of 0.000204 s⁻¹. The kon [4] was 1.2e+06 M⁻¹ s⁻¹ and the “MFI (mean fluorescence intensity) 0 h” value [5] was 65300 MFI.

B10: antibody 1F3-1E1 (antibody, human IgG1, kappa, V domains shown)
VH: B9 VH with T28S, G30D, T31D, G33A, G50I, K52Y, G54T, D55G, T58N
VL: B1 VL
B10 gave an EC50 [7] of 0.017 µg/mL, a Kd [4] of 141 pM and a koff [4] of 0.000212 s⁻¹. The kon [4] was 1.51e+06 M⁻¹ s⁻¹ and the “MFI (mean fluorescence intensity) 0 h” value [5] was 73400 MFI.

B11: antibody 1F3-2B1 (antibody, human IgG1, kappa, V domains shown)
VH: B9 VH with F27Y, T28N, G30D, T31N, G33A, G54D, D55S, S56A
VL: B1 VL
For B11, the EC50 [7] was 0.014 µg/mL, the Kd [4] was 241 pM and the koff [4] was 0.000317 s⁻¹. For the same binder, the kon [4] was 1.32e+06 M⁻¹ s⁻¹ and the “MFI (mean fluorescence intensity) 0 h” value [5] was 59400 MFI.

B12: antibody 1F3-2E8 (antibody, human IgG1, kappa, V domains shown)
VH: EVQLVESGGGLVQPGGSLRLSCAASGYSFSDYGMSWVRQAPGKGLEWVSWISPSKGSASYADSVKGRFTISRDNSKNTLYLQMNSLRAEDTAVYYCARAELLAFDVYTASDYWGQGTLVTVSS
VL: B1 VL
B12 was tested, and the EC50 [7] was 0.009 µg/mL, the Kd [4] was 872 pM and the koff [4] was 0.00102 s⁻¹. The kon [4] was 1.17e+06 M⁻¹ s⁻¹ and the “MFI (mean fluorescence intensity) 0 h” value [5] was 58200 MFI.

B13: antibody 1F3-2F3 (antibody, human IgG1, kappa, V domains shown)
VH: B12 VH with Y27F, S28N, W50R, S52D, P53W, S54D, K55G, S57N, A58T, S59R
VL: B1 VL
B13 showed an EC50 [7] of 0.011 µg/mL, a Kd [4] of 370 pM and a koff [4] of 0.000519 s⁻¹. The kon [4] was 1.4e+06 M⁻¹ s⁻¹ and the “MFI (mean fluorescence intensity) 0 h” value [5] was 69000 MFI.

B14: antibody 1G7 (antibody, human IgG1, kappa, V domains shown)
VH: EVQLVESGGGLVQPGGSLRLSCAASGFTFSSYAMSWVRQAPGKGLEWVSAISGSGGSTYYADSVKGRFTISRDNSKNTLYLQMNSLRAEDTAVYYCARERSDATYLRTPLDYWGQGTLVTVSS
VL: B1 VL
B14 showed an EC50 [2] of 0.022 µg/mL, a Kd [3] of 16700 pM and a koff [3] of 0.00631 s⁻¹. It also gave a kon [3] of 377000 M⁻¹ s⁻¹.

B15: antibody 1F3-1G11 (antibody, human IgG1, kappa, V domains shown)
VH: B12 VH with S30T, D31G, W50G, K55G, S57T, A58I, S59G
VL: B1 VL
B15 showed an EC50 [7] of 0.007 µg/mL, a Kd [4] of 815 pM and a koff [4] of 0.00115 s⁻¹. The kon [4] was 1.41e+06 M⁻¹ s⁻¹ and the “MFI (mean fluorescence intensity) 0 h” value [5] was 60500 MFI.

B16: antibody 10F4-1A1 (antibody, human IgG1, kappa, V domains shown)
VH: B4 VH with D27F, T30D, W33D, G50S, S52K, Q53P, G55S, S56A, A58K, Y59F
VL: B1 VL
B16 gave an EC50 [6] of 0.051 µg/mL, a Kd [4] of 432 pM and a koff [4] of 0.000186 s⁻¹. For the same binder, the kon [4] was 430000 M⁻¹ s⁻¹.

B17: antibody 10F4-2C12 (antibody, human IgG1, kappa, V domains shown)
VH: EVQLVESGGGLVQPGGSLRLSCAASGYNFGDYSMSWVRQAPGKGLEWVSVIDTTSAYTRYADSVKGRFTISRDNSKNTLYLQMNSLRAEDTAVYYCAREYSDVVDYVSVRTPLDYWGQGTLVTVSS
VL: B1 VL
With B17 the EC50 [6] was 0.06 µg/mL, the Kd [4] was 533 pM and the koff [4] was 0.000304 s⁻¹. The kon [4] was 570000 M⁻¹ s⁻¹.
